Results: patent US20090130120A1 (published 2009)

Experiments:
[1] = molecular target: F protein on live RSV virus (strain not stated) (respiratory syncytial virus (RSV)); assay: cell-based or functional assay
[2] = molecular target: T1, 12-mer Ga derived peptide HFEVFNFVPCSI; assay: array of overlapping 12-mer peptides, 1 ug/ml antibody, chemiluminescence
T1 construct: also called (169) HFEVFNFVPCSI (176)
T1 peptide: HFEVFNFVPCSI

[3] = molecular target: T2, RSV G protein of group A strain (Ga protein) (respiratory syncytial virus (RSV), …, UniProt P03423 1-298); assay: Biacore, antibody on chip, recombinant Ga in flow
T2 construct: also called RSV-Ga; RSV-GA2 protein
T2 sequence: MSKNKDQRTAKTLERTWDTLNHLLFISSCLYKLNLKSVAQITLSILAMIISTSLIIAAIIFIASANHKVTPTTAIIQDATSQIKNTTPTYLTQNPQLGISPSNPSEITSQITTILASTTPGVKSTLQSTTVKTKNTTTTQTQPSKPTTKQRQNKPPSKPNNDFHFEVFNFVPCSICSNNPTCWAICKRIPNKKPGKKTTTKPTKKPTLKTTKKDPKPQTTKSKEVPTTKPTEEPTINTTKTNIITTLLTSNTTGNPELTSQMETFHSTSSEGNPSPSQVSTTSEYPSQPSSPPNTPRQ

Work on Synagis® (palivizumab) (antibody) yielded an IC50, plaque assay for neutralization of RSV on HEp2 cells with rabbit complement [1] of 0.3 µg/mL and an affinity according to the plaque neutralization assay [1] of 2 nM.

B1: murine monoclonal antibody 131-2G (antibody, V domains shown)
VH: EVQLQQSGPELVKPGTSVKISCKASGYSFTGFTMNWVKQSHGKNLEWFGLINPFNGNTGYNQKFKGKATLTVDKSSSTAFMELLSLTSEDSAVYYCARSGKSYDYEAWFTYWGQGTLVTVSA
VL: DIVMTQTTLSLPVSLGNQASISCRSSQTIVHTNGNTYLEWYLQKPGQSPKLLIYKVSNRFSGVPDRFSGSGSGTDFILNISRVEAEDLGVYYCFQGSHVPFTFGSGTKLEIKR
notes: Only variable regions are printed
B1: binds [2].

B2: 10C6 (antibody, V domains shown)
VH: QVQLVESGGGVVQPGRSLRLSCEASGFTFSGYAMHWVRQAPAKGLEWVAVISFDGSNNYYADSVKGRFTISRDNSKNMLFLQMNSLRAEDTAVYYCVRPDVIAVAGTALSNPFDLWGLGTMVTVSS
VL: EIVMTQSPATLSVSPGERALSCRASQSVRSNLVWYQQKPGQAPRLLIFGASTRATGIPARFSGSGSGTEFTLTISSLQSEDFALYFCQQNNNWPPTFGQGTRLEIK
For B2, the Kd [3] was 0.055 nM.
